The values below come from patent publication US11766479 (ZHEJIANG SHIMAI PHARMACEUTICAL, dated 2023).

Assay [1] has as its target T1, recombinant human ENPP3 (full-length extracellular domain) (human, UniProt O14638 31-875).
T1 construct: extracellular domain; Bought protein; also called Human ENPP3 (CD203c) protein
T1 sequence (looked up): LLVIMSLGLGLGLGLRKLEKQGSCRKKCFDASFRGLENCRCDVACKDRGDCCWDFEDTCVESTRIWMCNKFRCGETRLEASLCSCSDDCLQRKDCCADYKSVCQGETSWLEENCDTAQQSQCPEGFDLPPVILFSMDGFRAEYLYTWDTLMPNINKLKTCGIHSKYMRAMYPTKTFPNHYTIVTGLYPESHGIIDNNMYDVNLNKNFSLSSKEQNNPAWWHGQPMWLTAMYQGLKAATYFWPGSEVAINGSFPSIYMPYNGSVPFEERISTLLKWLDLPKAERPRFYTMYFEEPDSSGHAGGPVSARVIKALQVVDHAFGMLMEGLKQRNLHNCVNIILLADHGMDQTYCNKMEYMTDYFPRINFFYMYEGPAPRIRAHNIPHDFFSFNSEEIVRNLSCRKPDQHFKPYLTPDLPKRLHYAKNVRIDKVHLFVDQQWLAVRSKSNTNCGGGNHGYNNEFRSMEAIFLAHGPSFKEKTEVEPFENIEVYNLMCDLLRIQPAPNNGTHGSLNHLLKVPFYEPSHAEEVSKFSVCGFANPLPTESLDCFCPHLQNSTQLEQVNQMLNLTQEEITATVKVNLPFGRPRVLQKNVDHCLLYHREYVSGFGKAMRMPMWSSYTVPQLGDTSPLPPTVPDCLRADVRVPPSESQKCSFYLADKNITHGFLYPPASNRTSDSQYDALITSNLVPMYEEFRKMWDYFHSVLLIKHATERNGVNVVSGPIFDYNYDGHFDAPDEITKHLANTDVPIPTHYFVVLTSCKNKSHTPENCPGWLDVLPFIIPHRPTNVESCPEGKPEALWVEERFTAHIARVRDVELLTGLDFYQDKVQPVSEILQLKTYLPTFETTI
The assay can be described thus: ELISA, recombinant human ENPP3 coated at 200 ng per well, detection with HRP anti-FLAG. Here is the method:
The hexahistidine (HHHHHH, SEQ ID NO: 35)-tagged 3A10 Fab was expressed in *E. coli* strain HB2151 and purified from the soluble fraction of periplasm by using the Ni-NTA resin. Then ELISA was performed by using standard protocols to measure binding affinity to recombinant human ENPP3 (full-length extracellular domain). Briefly, the recombinant human ENPP3 (ACROBiosystems) was coated on Corning EIA/RIA high-binding 96-well plates (Corning Inc.) at 200 ng per well overnight at 4° C. and blocked with 3% nonfat milk in PBS (pH7.4). Five-fold serially diluted antibodies were added accordingly and then incubated at room temperature for 2 h. The plates were washed with PBS containing 0.05% TWEEN® 20. Bound antibodies were detected by HRP-conjugated anti-FLAG tag antibody (Sino Biological). The assay was developed at room temperature with TMB substrate (Solarbio) and OD value was measured at 450 nm with a microplate reader.
(In general: An ELISA detects its analyte on a solid surface through an enzyme-linked reagent.)

The target in assay [2] is T1, recombinant human ENPP3 (full-length …). The assay is described as follows: ELISA, recombinant human ENPP3 coated at 100 ng per well, detection with anti-human IgG Fc-peroxidase. Here is the method:
ELISA was performed according to standard protocols, to determine binding affinity of anti-ENPP3 3A10 mAb to recombinant human ENPP3 (AcroBiosystems). Briefly, recombinant human ENPP3 was coated on Corning EIA/RIA high-binding 96-well plates (Corning Inc.) at 100 ng per well overnight at 4° C. and blocked with 3% nonfat milk in PBS (pH7.4). Five-fold serially diluted antibodies were added and incubated at 37° C. for 1 h. The plates were washed with PBS containing 0.05% TWEEN® 20. Bound antibodies were detected by anti-human IgG (Fc-specific)-peroxidase antibody (Sigma). The assay was developed at room temperature with TMB substrate (Solarbio) and monitored at 450 nm with a microplate reader. The half-maximal binding ($EC50$) was calculated by fitting the data to the Langmuir adsorption isotherm.

B1: hexahistidine-tagged 3A10 Fab (Fab, V domains shown)
VH: EVQLVESGGGLVKPGGSLRLSCAASGFTFSNAWMSWVRQAPGKGLEWVSYISSSGSTIYYADSVKGRFTISRDNAKNSLYLQMNSLRAEDTAVYYCARLAGPYYFDYWGQGTLVTVSS
VL: QSVVTQPPSVSAAPGQKVTISCSGSSSNIGNNYVSWYQQLPGTAPKLLIYDNNKRPSGIPDRFSGSKSGTSATLGIDGLRTGDEAEYFCGVWDSSLRAELFAGGTKVTVL
notes: Human Fab from a phage library with a lambda light chain, made in E. coli HB2151; also called Fab 3A10; anti-ENPP3 Fab 3A10
In general, EC50 refers to the concentration giving half of the maximal effect. For B1, in assay [1], the EC50 stood at 9.17 nM.

B2: anti-ENPP3 3A10 mAb (antibody, human IgG1, lambda, V domains shown)
VH: B1 VH
VL: QSVVTQPPSVSAAPGQKVTISCSGSSSNIGNNYVSWYQQLPGTAPKLLIYDNNKRPSGIPDRFSGSKSGTSATLGIDGLRTGDEAEYFCGVWDSSLRAELFAGGTKVTVLS
notes: Intact human IgG1 with wild type Fc and a lambda light chain, expressed in 293FS cells; also called anti-ENPP3 monoclonal antibody
With B2, the EC50 in assay [2] worked out at 0.107 nM.
